# Reference: US20240043489A1, “Cytokine Prodrugs Comprising a Cleavable Linker” (Trutino Biosciences Inc., priority 2020, published 2024)
# B1: Construct B: SEQ ID NO 101: m IL2-2x(SG4)-MMPcs1-2x(G4S)-IL2Ralpha-mIgG1 Fc (protein)
# chain: APTSSSTSSSTAEAQQQQQQQQQQQQHLEQLLMDLQELLSRMENYRNLKLPRMLTFKFYLPKQATELKDLQCLEDELGPLRHVLDLTQSKSFQLEDAENFISNIRVTVVKLKGSDNTFECQFDDESATVVDFLRRWIAFCQSIISTSPQSGGGGSGGGGGPLGVRGGGGGSGGGGSELCLYDPPEVPNATFKALSYKNGTILNCECKRGFRRLKELVYMRCLGNSWSSNCQCTSNSHDKSRKQVTAQLEHQKEQQTTTDMQKPTQSMHQENLTGHCREPPPWKHEDSKRIYHFVEGQSVHYECIPGYKALQRGPAISICKMKCGKTGWTQPQLTCVDEREHHRFLASEESQGSRNSSPESETSCPITTTDFPQPTETTAMTETFVLTMEYKGCKPCICTVPEVSSVFIFPPKPKDVLTITLTPKVTCVVVDISKDDPEVQFSWFVDDVEVHTAQTQPREEQFNSTFRSVSELPIMHQDWLNGKEFKCRVNSAAFPAPIEKTISKTKGRPKAPQVYTIPPPKEQMAKDKVSLTCMITDFFPEDITVEWQWNGQPAENYKNTQPIMDTDGSYFVYSKLNVQKSNWEAGNTFTCSVLHEGLHNHHTEKSLSHSPGK
# Columns and labels:
# MMP9 = biological target: T1, MMP9 (Mus musculus, UniProt P41245); experiment: Cleavage of fusion protein by MMP9 protease (SDS-PAGE / Western blot); format: biochemical
# T1 construct: purchased R&D Systems
# Method: (§1) Recombinant MMP9 and/or MMP2 (R&D Systems) was first activated with p-aminophenylmercuric acetate and this activated protease or equivalent amount of activating solution without the protease was used to digest or mock digest the fusion protein for 1 hr, 2 hr, 4 hr and overnight (18-22 hr) at 37 C. Cleavage assays are set up in TCNB buffer: 50 mM Tris, 10 mM CaCl2), 150 mM NaCl, 0.05% Brij-35 (w/v), pH 7.5. Digested protein was aliquoted and stored at −80° C. prior to testing. Aliquots of digests were subsequently analyzed by SDS-PAGE followed by Western blotting to evaluate the extent of cleavage. Digests were also assessed in functional assays such as CTLL-2 proliferation and HEK-Blue Interleukin reporter assays. As shown in FIGS. 2A-E, essentially complete cleavage by MMP9 protease of the fusion proteins with functional site is seen after overnight incubation. In contrast, proteins containing a scrambled MMP cleavage site are not cut (FIG. 2E).
# Untreated and digested fusion proteins were evaluated for cleavage products by Western blot. The following monoclonal antibodies were used: rat anti-mouse IL-2 antibody (JES6-1A12; ThermoFisher), goat anti-mouse IL-2 polyclonal antibody (AF-402-NA; R&D systems), mouse anti-6xHis monoclonal antibody (MA1-21315, ThermoFisher), Anti-mIgG Fc HRP conjugated (ThermoFisher cat #A16084), and Anti-human IL2 antibody (Invitrogen, cat #MA5-17097, mouse IgG1). Detection was performed using either a goat anti-rat HRP-conjugated antibody, Donkey Anti-goat HRP-conjugated antibody or Goat Anti-mouse HIRP conjugated (Jackson Immuno Research, West Grove, PA) and developed using the SuperSignal West Femto Maximum sensitivity detection reagent (ThermoFisher) following the manufacturer's recommendations.
# fibronectin = fibronectin (Homo sapiens, UniProt P02751); experiment: IL-2 fusion protein plate binding assay to fibronectin
# Method: A similar plate-based assay was developed to interrogate binding of IL-2 fusion variants to fibronectin. 96-well plates were coated with 4 ug/mL of fibronectin (Sigma) or control BSA for 18-22 h at room temperature on shaker (350 rpm). After washing, wells are blocked with protein-free blocking buffer (Pierce) for 90 min, then fusion proteins are titrated in blocking buffer-0.1% Tween 20 pH 7.5 and/or pH 6 and added for 1 hr at room temperature with shaking. After washing, an anti-mouse IL-2 biotin-labelled detection antibody (JES6-5H4, ThermoFisher) is added and binding is detected using Ultra Streptavidin HRP (ThermoFisher). The plate was developed by adding the chromogenic tetramethylbenzidine substrate (Ultra TMB, ThermoFisher). The reaction is stopped by addition of 0.5M H2SO4 and the absorbance is read at 450-650 nm.
# CTLL-2 cells = experiment: CTLL-2 proliferation assay (MTT); format: cell-based
# Method: as §1
# IL-2 activity was measured using either CTLL-2 cells (ATCC) or the reporter cell line HEK Blue IL2 (Invivogen, San Diego). In brief, for the CTLL-2 assay a titration of untreated and digested samples is added to 40 000 CTLL-2 cells per well in 100 ul medium in a 96-well plate and incubated at 37C in 5% CO2 for 18-22 hr. At the end of this period, 50ug/well Thiazolyl Blue Tetrazolium Bromide (MTT) (Sigma-Aldrich) was added and the plate was incubated for 5 hr at 37C in 5% CO2. Cells were lysed with 100 µl/well 10% SDS (Sigma) acidified with HCl, incubated at 37C for 4 hr, and absorbance was read at 570 nm. Recombinant human or mouse IL-2 (Peprotech and R&D systems respectively) was used as a positive control. FIGS. 3A-B, 3K-L and 3N-P show examples of untreated and digested fusion proteins evaluated in CTLL-2 proliferation assay.
# RM-1 = experiment: In vivo efficacy in RM-1 prostate cancer model
# Method: For the efficacy studies, C57BL/6 or BALB/c mice were subcutaneously inoculated with malignant cells and when the average tumor volume reached on average 90 mm^3, animals were randomized into 2 groups based on tumor volumes (n=10 mice per treatment group). Mice were dosed intravenously every 3 days (Q3D) at 20 mg/kg. Tumors, body weights and clinical observations were measured/collected twice a week for the duration of the study. Tumor volume is shown in FIGS. 10A-D, 11A, 12A, and 13B-C. […] Liver and kidney enzyme results corresponding to FIGS. 11A and 12A are shown in FIGS. 11B-D and 12B-D, respectively.
# heparin = experiment: IL-2 fusion protein plate binding assay to Heparin-BSA conjugate
# Method: 96-well plates were coated with 25 ug/mL of Heparin-BSA conjugate (provided by Dr. Mueller, Boerhinger Ingelheim) or control BSA for 18-22 h at room temperature on shaker (350 rpm). After washing, wells are blocked with PBS-0.05% Tween 20/1% BSA for 90 min, then fusion proteins are titrated in 1% BSA/PBS-0.05% Tween 20 pH 7.5 and/or pH 6 and added for 2 hr at room temperature with shaking. After washing, an anti-mouse IL-2 biotin-labelled detection antibody (JES6-5H4, ThermoFisher) is added and binding is detected using Ultra Strepavidin HIRP (ThermoFisher). The plate was developed by adding the chromogenic tetramethylbenzidine substrate (Ultra TMB, ThermoFisher). The reaction is stopped by addition of 0.5M H2SO4 and the absorbance is read at 450-650 nm.
# collagen = experiment: IL-2 fusion protein collagen-agarose pulldown (immunoblot quantitation); format: binding
# Method: To test binding to collagen, a pulldown assay using agarose cross-linked to collagen (Sigma) was performed. IL-2 fusion proteins were incubated with collagen-agarose or control agarose beads for 18-22 h at 4C with gentle rotation in 1% BSA/PBS-0.05% Tween 20. After washing, proteins bound to the beads were eluted by resuspending beads in SDS sample buffer (Life Technologies). Bound proteins were then separated by SDS-PAGE on 4-12% BisTris gradient gel followed by immunoblotting with goat anti-mouse IL-2 polyclonal antibody (AF-402-NA; R&D systems). Donkey Anti-goat RP-conjugated antibody was used for detection (Jackson Immuno Research, West Grove, PA) and the blot was developed using the SuperSignal West Femto Maximum sensitivity detection reagent (ThermoFisher) following the manufacturer's recommendations.
# fibronectin, sequence (P02751 32-2477, species assumed): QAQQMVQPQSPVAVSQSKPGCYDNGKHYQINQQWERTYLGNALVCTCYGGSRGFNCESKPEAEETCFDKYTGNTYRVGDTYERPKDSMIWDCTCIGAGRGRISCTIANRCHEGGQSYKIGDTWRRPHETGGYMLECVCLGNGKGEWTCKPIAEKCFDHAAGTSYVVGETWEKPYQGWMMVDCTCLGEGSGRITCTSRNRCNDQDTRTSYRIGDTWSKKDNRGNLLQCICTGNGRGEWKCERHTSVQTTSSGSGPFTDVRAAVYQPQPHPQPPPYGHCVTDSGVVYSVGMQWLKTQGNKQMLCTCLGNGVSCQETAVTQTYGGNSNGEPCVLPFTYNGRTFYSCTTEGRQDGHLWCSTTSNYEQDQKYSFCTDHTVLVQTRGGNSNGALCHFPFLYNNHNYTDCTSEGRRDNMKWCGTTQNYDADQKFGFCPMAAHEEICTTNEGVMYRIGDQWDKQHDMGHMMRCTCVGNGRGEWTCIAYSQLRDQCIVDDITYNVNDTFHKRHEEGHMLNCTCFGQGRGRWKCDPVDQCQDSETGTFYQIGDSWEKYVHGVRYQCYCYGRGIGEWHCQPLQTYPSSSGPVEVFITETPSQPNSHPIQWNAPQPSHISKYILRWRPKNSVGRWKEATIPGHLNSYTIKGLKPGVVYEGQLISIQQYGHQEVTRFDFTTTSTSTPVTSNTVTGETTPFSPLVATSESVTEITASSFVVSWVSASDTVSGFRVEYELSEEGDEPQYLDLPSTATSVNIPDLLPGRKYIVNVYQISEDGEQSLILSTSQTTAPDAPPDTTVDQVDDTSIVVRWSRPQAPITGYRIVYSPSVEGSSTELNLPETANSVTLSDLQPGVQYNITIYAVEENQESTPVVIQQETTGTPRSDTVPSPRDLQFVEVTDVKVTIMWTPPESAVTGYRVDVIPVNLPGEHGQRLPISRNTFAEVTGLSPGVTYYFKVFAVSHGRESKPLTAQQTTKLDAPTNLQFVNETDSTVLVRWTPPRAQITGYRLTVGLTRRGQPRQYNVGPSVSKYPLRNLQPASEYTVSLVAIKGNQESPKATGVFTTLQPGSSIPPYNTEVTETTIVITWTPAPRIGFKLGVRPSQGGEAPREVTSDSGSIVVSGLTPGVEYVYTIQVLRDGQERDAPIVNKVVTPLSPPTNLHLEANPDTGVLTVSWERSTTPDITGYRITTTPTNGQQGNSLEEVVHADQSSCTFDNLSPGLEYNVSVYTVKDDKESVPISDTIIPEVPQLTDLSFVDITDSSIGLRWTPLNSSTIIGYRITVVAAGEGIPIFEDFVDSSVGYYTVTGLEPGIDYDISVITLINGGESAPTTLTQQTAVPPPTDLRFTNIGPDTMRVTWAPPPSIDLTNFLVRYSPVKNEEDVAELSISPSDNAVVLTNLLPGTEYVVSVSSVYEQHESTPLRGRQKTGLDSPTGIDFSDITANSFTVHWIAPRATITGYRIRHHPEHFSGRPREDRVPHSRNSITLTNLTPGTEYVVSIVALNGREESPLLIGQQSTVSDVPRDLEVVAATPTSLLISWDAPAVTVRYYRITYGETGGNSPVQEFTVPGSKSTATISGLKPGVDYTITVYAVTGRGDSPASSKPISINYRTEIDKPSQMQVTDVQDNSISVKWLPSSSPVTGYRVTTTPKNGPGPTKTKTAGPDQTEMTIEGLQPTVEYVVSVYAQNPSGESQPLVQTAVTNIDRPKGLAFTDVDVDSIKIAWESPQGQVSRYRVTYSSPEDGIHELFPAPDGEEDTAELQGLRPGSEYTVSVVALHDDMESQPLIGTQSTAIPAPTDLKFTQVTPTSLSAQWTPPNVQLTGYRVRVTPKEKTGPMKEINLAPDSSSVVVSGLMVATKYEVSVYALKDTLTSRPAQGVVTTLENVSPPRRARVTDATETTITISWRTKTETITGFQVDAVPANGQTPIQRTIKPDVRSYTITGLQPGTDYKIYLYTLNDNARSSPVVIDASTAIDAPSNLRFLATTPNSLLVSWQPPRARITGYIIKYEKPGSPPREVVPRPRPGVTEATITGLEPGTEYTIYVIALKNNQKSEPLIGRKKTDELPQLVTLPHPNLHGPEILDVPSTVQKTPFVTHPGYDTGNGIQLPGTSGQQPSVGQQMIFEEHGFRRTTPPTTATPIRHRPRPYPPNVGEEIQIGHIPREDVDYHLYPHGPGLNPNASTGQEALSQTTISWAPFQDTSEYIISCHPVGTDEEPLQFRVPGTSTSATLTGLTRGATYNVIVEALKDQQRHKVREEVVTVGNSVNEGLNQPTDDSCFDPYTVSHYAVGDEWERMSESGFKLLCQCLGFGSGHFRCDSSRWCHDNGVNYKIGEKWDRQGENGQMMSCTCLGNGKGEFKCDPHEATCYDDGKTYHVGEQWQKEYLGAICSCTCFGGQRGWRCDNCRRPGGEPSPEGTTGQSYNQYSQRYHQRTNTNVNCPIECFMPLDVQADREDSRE
# T1 sequence (P41245 108-730): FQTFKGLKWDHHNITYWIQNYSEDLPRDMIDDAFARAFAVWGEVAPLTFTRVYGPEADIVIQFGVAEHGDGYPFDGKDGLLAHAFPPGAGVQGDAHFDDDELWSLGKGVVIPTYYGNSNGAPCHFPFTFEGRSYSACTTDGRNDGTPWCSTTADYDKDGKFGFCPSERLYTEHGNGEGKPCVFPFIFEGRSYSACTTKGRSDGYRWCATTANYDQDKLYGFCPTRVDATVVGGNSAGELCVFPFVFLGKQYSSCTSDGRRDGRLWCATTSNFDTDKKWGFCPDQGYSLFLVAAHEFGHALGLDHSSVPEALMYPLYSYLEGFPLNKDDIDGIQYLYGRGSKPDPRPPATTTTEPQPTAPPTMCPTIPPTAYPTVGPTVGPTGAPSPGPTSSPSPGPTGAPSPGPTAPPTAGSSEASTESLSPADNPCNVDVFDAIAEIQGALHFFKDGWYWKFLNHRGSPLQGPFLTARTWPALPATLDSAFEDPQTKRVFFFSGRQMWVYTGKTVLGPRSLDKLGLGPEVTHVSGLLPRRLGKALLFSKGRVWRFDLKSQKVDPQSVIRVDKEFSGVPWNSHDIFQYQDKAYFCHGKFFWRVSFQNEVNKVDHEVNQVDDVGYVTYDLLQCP
molecule,measurement,setting,value
B1,full-length cytokine prodrug remaining,MMP9; 20 hour +MMP time point,only a faint band
same,time at which cleavage product was detectable,"MMP9; +MMP-9 digestion, Western blot",1 h
same,fibronectin binding at acidic pH,fibronectin; pH 6,No significant binding
same,fibronectin binding at pH 7.5,fibronectin; pH 7.5 (neutral),No significant binding
same,"CTLL-2 cell proliferation, MMP-9 treated construct",CTLL-2 cells; cleaved by MMP-9,stimulates CTLL-2 cell proliferation in a dose dependent manner
same,"CTLL-2 cell proliferation, uncleaved construct",CTLL-2 cells; uncleaved,minimally stimulatory
same,"signs of toxicity (body weight loss, liver and/or kidney enzymes, clinical observations)","RM-1; RM-1 model, 20 mg/kg IV Q3D",no signs of toxicity
same,Max TGI %,"RM-1; RM_1, C57BL/6, 20 mpk IV Q3D, D10",58%
same,heparin binding EC50 relative to Construct CC,heparin; fold higher EC50 value,> 100 fold
same,heparin binding (qualitative),"heparin; pH 6 vs pH 7.5, plate assay",much weaker
same,Bound,"collagen; blot quantitation, collagen-agarose bound fraction",2306
same,Normalized,collagen; bound fraction relative to Construct B (fold),1
same,Bound (% input),collagen; fraction bound to collagen-agarose,0.3%
